Assay results as given in paper PMC2749330 (The Biochemical journal, 2008).

Biological target: recombinant CLEC-2, monomeric, as used in the surface plasmon resonance studies (UniProt Q9P126 55-229)
Assay: SPR

Chain of recombinant CLEC-2, monomeric, as used in the surface plasmon resonance studies (Q9P126 55-229): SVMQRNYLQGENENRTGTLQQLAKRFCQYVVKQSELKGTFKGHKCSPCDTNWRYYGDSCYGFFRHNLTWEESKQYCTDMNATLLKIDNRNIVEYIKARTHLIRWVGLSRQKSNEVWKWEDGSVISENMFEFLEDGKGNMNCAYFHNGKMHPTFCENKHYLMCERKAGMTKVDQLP

Kd: 24.5 ± 3.7 µM
B1: recombinant podoplanin fused at its C-terminus to the human IgG1 Fc region (Fc fusion, UniProt Q86YL7 23-131, looked up)
chain: ASTGQPEDDTETTGLEGGVAMPGAEDDVVTPGTSEDRYKSGLTTLVATSVNSVTGIRIEDLPTSESTVHAQEQSPSATASNVATSHSTEKVDGDTQTTVEKDGLSTVTL
